Data as given in publication PMC8558862, “Imaging of Dysfunctional Elastogenesis in Atherosclerosis Using an Improved Gadolinium-Based Tetrameric MRI Probe Targeted to Tropoelastin” (Journal of Medicinal Chemistry, 2021).
Ends that are not written are not given here. (Gd-DOTA)4‑MI = maleimide-bearing lysine-based tetramer of four Gd(III)-DOTA-monoamide chelates

Assays:
[1] = system: atherosclerotic plaques in the brachiocephalic artery of ApoE–/– mice; experiment: In vivo LGE MRI at 3 T in atherosclerotic ApoE–/– mice; conditions: 0.2 mmol kg^–1 i.v.
Protocol: The Gd4-TESMA probe was assessed for its ability to enhance the MRI signal within plaques in the brachiocephalic artery of an ApoE^–/– murine model of plaque progression and in control nonatherosclerotic mice. For these studies, atherosclerotic ApoE^–/– mice were scanned after the tandem administration of Gd-ESMA, Gd-TESMA (24 h after the Gd-ESMA administration), and finally Gd4-TESMA (24 h after the Gd-TESMA administration; Supporting Information Figure S1). […] All molecular probes were injected at a dose of 0.2 mmol kg^–1 (corresponding to the same dose of injected gadolinium for Gd-ESMA and Gd-TESMA and to a dose of 0.8 mmolGd kg^–1 for Gd4-TESMA). […]
Following a 3D GRE scout scan, contrast-enhanced angiography images were acquired for visualization of the aortic root, aortic arch, and brachiocephalic and carotid arteries with a FOV = 30 × 30 × 8 mm, matrix = 200 × 200, in-plane resolution = 0.15 × 0.15 mm (reconstructed = 0.10 × 0.10 mm), slice thickness = 0.5 mm, TR/TE = 15/6.1 (ms), and flip angle = 40°. […] Late gadolinium enhanced images were acquired with an inversion-recovery 3D fast gradient echo sequence every 30 min for up to 2 h postinjection of the contrast agent and were used to visualize and quantify contrast uptake.

[2] = Relaxometry: water proton longitudinal relaxivity; assay type: physicochemical; conditions: 298 K, 3.8 mM HEPES, 150 mM NaCl, pH 7.2
Protocol: The relaxivity per gadolinium of Gd4-TESMA is 8.5 ± 0.2 mM^–1 s^–1 (at 20 MHz, 298 K, 3.8 mM HEPES, 150 mM NaCl, pH 7.2; Table 1), while that of Gd-TESMA under the same conditions cannot be defined uniquely as it changes with the concentration of the complex.
The water proton longitudinal relaxation rates as a function of the magnetic field strength were measured in aqueous solutions using a Fast Field-Cycling Stelar SmarTracer relaxometer (Stelar s.r.l., Mede (PV), […] MHz proton Larmor frequencies). The relaxometer operates under computer control with an absolute uncertainty in 1/T1 of 1%. […] The ^1H T1 relaxation times were acquired by the standard inversion recovery method with a typical 90° pulse width of 3.5 μs, 16 experiments, and 4 scans. The temperature was controlled using a Stelar VTC-91 airflow heater equipped with a calibrated copper–constantan thermocouple (uncertainty of ±0.1 °C).
MRI data are presented as median ± interquartile range (IQR). […] P values <0.05 were considered statistically significant.

[3] = 1H NMRD profile fitting (SBM and Freed theory); assay type: physicochemical; conditions: HEPES buffer pH 7.2; Gd-TESMA NMRD at 2.3 mM
Protocol: Figure 4 ^1H NMRD profiles showing the millimolar relaxivity per gadolinium r1p of Gd-TESMA (2.3 mM, solid symbols) and Gd4-TESMA (1.3 mM, open symbols) in the HEPES buffer (pH 7.2) at 298 K (circles) and 310 K (squares). The solid line represents the best fitting of the experimental points at 310 K to the SBM and Freed theory of paramagnetic relaxation. The following parameters were kept fixed: water diffusion coefficient (D) = 3.1 10^–5 cm^2 s^–1; distance between Gd(III) and the inner sphere water protons (r) = 3.1 Å; number of inner sphere water molecules (q) = 1; and distance of the closest approach of outer-sphere water protons = 3.8 Å. Curve fitting converged to the following: correlation time for molecular reorientation (τR) = 170 ps; residence lifetime of the inner sphere water molecule (τM) = 460 ns; correlation time for electronic relaxation (τv) = 47 ps; and zero-field splitting energy (Δ^2) = 1.3 10^19 s^–2. […]
The water proton longitudinal relaxation rates as a function of the magnetic field strength were measured in aqueous solutions using a Fast Field-Cycling Stelar SmarTracer relaxometer (Stelar s.r.l., Mede (PV), Italy) over a continuum of magnetic field strengths from 0.00024 to 0.25 T (corresponding to 0.01–10 MHz proton Larmor frequencies). […]

[4] = molecular target: T1, immobilized human recombinant tropoelastin (Homo sapiens, UniProt P15502); experiment: Surface plasmon resonance binding affinity (kinetic mode, 1:1 Langmuir model); conditions: SPR Biacore 2000, CM5 chip, 25 °C, HEPES running buffer pH 7.4; mean ± SD of triplicate measurements
T1 construct: purchased Advanced BioMatrix 5052-1MG
T1 sequence (P15502 27-786): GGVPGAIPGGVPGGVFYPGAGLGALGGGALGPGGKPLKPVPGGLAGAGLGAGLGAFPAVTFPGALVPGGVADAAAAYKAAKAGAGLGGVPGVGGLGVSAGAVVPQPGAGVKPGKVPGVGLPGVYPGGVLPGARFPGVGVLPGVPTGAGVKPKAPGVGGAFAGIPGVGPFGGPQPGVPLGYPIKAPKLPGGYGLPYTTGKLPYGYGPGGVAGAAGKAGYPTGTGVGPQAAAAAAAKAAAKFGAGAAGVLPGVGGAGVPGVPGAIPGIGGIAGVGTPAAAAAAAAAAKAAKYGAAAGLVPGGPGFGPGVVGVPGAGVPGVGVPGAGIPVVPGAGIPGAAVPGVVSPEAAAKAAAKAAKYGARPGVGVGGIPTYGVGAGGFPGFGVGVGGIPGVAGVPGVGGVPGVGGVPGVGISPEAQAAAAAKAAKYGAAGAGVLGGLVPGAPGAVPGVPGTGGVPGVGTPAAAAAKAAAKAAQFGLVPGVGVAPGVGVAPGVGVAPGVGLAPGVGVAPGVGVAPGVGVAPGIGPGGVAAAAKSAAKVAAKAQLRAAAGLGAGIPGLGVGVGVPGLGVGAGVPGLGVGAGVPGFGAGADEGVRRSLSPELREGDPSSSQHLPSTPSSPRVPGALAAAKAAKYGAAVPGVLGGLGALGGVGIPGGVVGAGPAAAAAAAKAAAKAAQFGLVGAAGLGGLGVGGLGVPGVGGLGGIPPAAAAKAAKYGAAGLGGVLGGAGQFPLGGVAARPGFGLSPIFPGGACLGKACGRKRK
Protocol: The binding affinity of Gd-TESMA and Gd4-TESMA to tropoelastin was assessed by surface plasmon resonance (SPR) under the kinetic affinity mode.
The binding affinity between tropoelastin (human recombinant tropoelastin, Advanced BioMatrix, Cat. No. 5052-1MG, Batch No. 7932) and Gd4-TESMA or Gd-TESMA was assessed by surface plasmon resonance (SPR) on a Biacore 2000 instrument (Cytiva). The instrument was equipped with a CM5 sensor chip carrying carboxymethylated dextran (Cytiva). First, the ligand was immobilized on the sensor chip surface by amine coupling: the flow cell was activated for 7 min by a 1-ethyl-3-(3-dimethylaminopropyl)carbodiimide hydrochloride (EDC)/N-hydroxysuccinimide (NHS) mixture. Then, tropoelastin was injected at 200 μM in a 10 mM sodium acetate buffer (pH 4) with a flow rate of 5 μL min^–1 to reach an immobilization level corresponding to 3500–5000 resonance units (R.U.). The remaining active sites were blocked by 1 M of ethanolamine-HCl (pH 8.5) for 7 min. As a control for nonspecific interaction, another flow cell on the CM5 sensor chip was treated in the same manner but without adding tropoelastin. […] The equilibrium dissociation constant (KD) and the kinetic association and dissociation rate constants (ka and kd) were determined by curve-fitting using the 1:1 Langmuir binding model implemented in the Biaevaluation software 4.1.1.[48] […]

[5] = Serum stability by RP-HPLC; conditions: male, human, 50% (v/v) aqueous pooled human serum
Protocol: The stabilities of Gd4-TESMA and the parent VVGS-peptide in human serum were evaluated by HPLC (Figure 6). Compounds were incubated up to 120 min, and aliquots were taken at different times: 0, 35, and 120 min.
The serum stabilities of Gd4-TESMA and its parent peptide (VVGS-peptide) were determined in 50% (v/v) aqueous pooled serum from human male AB plasma, which was purchased from Sigma-Aldrich (Milan, Italy). Samples were dissolved in water (6.6 mM), diluted in serum (previously centrifuged at 8000 rpm for 15 min at 4 °C) at a final concentration of 0.6 mM (220 μL), and subsequently incubated at 37 °C. Aliquots (6 μL) taken after 0, 35, and 120 min were diluted in water at a final concentration of 0.06 mM. The samples were analyzed by RP-HPLC using an Atlantis dC18 column, 5 μm, 4.6 × 150 mm, as described in ref ([47]). The amount of intact compound was estimated by integrating the area under the corresponding elution peak monitored at 210 nm. Five replicate experiments for each compound were carried out. The […] (HPLW peptide),[47] unrelated to TESMA, was used as a positive control.

[6] = molecular target: T2, human recombinant tropoelastin (human, UniProt P15502 27-786); experiment: SPR; Biacore 2000; tropoelastin immobilised on a CM5 chip by amine coupling (3500-5000 R.U.); analyte injected at 20 uL/min for 3 min at 25 °C in HEPES running buffer (pH 7.4, HBS-P) or 10 mM HEPES; control flow cell subtracted; 1:1 Langmuir fit; triplicate; conditions: both partners purified
T2 construct: tropoelastin (soluble elastin precursor), human, recombinant; also called TE; source: bought: Advanced BioMatrix (Cat. No. 5052-1MG, Batch No. 7932)
T2 sequence (looked up): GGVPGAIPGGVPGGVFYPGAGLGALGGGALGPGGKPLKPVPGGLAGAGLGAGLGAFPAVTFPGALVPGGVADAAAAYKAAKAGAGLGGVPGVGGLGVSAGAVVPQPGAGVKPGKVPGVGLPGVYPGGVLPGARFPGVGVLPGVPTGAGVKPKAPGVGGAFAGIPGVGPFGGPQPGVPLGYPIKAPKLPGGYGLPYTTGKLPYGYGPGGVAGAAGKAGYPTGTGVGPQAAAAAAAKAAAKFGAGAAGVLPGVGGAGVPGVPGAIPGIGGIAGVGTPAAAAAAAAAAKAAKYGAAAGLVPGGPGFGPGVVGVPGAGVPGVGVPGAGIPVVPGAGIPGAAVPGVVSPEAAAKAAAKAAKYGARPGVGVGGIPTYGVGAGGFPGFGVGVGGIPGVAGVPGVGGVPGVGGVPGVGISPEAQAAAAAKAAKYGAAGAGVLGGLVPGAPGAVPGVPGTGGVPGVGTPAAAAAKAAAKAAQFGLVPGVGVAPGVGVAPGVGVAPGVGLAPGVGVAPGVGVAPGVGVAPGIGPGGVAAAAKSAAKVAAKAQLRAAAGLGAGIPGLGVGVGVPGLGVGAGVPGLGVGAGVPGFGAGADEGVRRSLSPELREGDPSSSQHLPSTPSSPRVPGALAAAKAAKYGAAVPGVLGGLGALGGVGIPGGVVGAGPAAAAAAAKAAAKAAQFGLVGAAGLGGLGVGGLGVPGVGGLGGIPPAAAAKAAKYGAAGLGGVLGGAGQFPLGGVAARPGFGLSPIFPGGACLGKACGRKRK

With C-GAESAPLVSSVQSPD [Gd4-scTESMA] the “accumulation within plaques” value ([1]; ApoE–/– mice, LGE MRI, in comparison to Gd4-TESMA) was “low/negligible accumulation within plaques”.

With “Gd-TESMA: single Gd-DOTA monoamide unit conjugated with a 15-residue peptide sequence (VVGS-peptide); monomeric counterpart, purchased (VVGSPSAQDEASPLS; also: single Gd-DOTA monoamide unit conjugated, site not given here) [reference compound]” the “relaxivity per gadolinium at 18 μM probe” value ([2]; 18 μM probe, 20 MHz) was 6.1 mM^–1 s^–1, the “relaxivity r1 at 20 MHz, probe at 1 mM” value ([2]; 1 mM probe, 20 MHz, mean ± SD) was 10.0 ± 0.3 mM^–1 s^–1 and the “relaxivity r1 at 125 MHz, probe at 1 mM” value ([2]; 1 mM probe, 125 MHz, mean ± SD) was 10.4 ± 0.3 mM^–1 s^–1. For the same molecule, the “relaxivity per gadolinium at 2.3 mM probe” value ([2]; 2.3 mM probe, 20 MHz) was 12.4 mM^–1 s^–1, the “aggregation (inferred from concentration dependence of relaxivity and NMRD profile)” value [3] was “self-assembled into aggregates with high polydispersity at relatively high concentrations” and the “dissociation rate constant kd” value [4] was 2.3 × 10^–2 ± 0.5 × 10^–2 s^–1. The “vessel wall-to-blood CNR at 0.5 h postinjection” value ([1]; ApoE–/– mice on HFD 16 weeks, 3 T LGE MRI, 0.5 h, median (IQR)) was 6.75.

VVGSPSAQDEASPLS [VVGS-peptide] showed a half-life at 0.6 mM [5] of about 45 min and a remaining at 2 h, 0.6 mM [5] of about 20%.

B1: Gd-TESMA (peptide)
peptide: VVGSPSAQDEASPLS
modifications: also: single Gd-DOTA monoamide unit conjugated, site not given here
notes: also called monomeric Gd-TESMA probe; source: bought: For Peptide Protein Research Limited (Fareham, UK)
B1 showed a Kd [6] of 28 µM, a koff [6] of 0.023 s⁻¹ and a kon [6] of 880 M⁻¹ s⁻¹.

B2: Gd4-TESMA (peptide)
peptide: C((Gd-DOTA)4‑MI)VVGSPSAQDEASPLS
modifications: also: Gd(III) chelates, thiol/maleimide conjugation
notes: also called tetrameric Gd4-TESMA probe; source: synthetic peptide (Fmoc SPPS), reacted with [Gd-DOTA]4-MI, purified by semipreparative HPLC
In the case of B2, the Kd [6] is reported as 41 µM.
